Laboratory results reported in patent publication US20150125421A1.
One block for each molecule: values may come before it.

Tests used:
Assay in all cases: cell-based or functional assay
[1] = biological target: rat MHC class II RT1B (I-A) glycoproteins (rat)
[2] = biological target: rat IL-2 receptor on cells (rat)
[3] = biological target: rat IL-4 receptor on cells (rat)

B1: IL2Ekdel (rat IL2/GP73-87/6his fusion protein) (protein)
chain: APTSSPAKETQQHLEQLLLDLQVLLRGIDNYKNLKLPMMLTFKFYLPKQATELKHLQCLENELGALQRVLDLTQSKSFHLEDAGNFISNIRVTVVKLKGSENKFECQFDDEPATVVEFLRRWIAICQSIISTMTQPQKSQRSQDENPVVHHHHHHH
lowest concentration fully active in MHCII-dependent T cell-mediated killing assay [2]: 100 fM
potency against GPMBP or DHFR-NAg in MHCII-dependent T cell-mediated killing assay (R1-trans T-APC) (orders of magnitude) [2]: > 5

B3: IL4Ekdel (rat IL4/GP73-87/6his fusion protein) (protein)
chain: CNDSPLREIINTLNQVTEKGTPCTEMFVPDVLTATRNTTENELICRASRVLRKFYFPRDVPPCLKNKSGVLGELRKLCRGVSGLNSLRSCTVNESTLTTLKDFLESLKSILRGKYLQSCTSMSPQKSQRSQDENPVVHHHHHHH
antigenic potency against GPMBP (RsL.11 proliferation, irradiated splenic APC) [3]: > 1000 times
potency against GPMBP in MHCII-dependent T cell-mediated killing assay (R1-trans T-APC) [3]: 1000 times

The next lines start with results.

[3H]thymidine incorporation of RsL.11 T cells with 100 nM cytokine/NAg in the presence of OX6 [1]: < 10000 cpm
[3H]thymidine incorporation of RsL.11 T cells with 100 fM-10 nM cytokine/NAg in the presence of OX6 [1]: < 1000 cpm
inhibition of the antigenic reactivity of IL4.4 (RsL.11 proliferation, irradiated splenic APC) (orders of magnitude) [1]: > 5
inhibition of the response to GPMBP (RsL.11 proliferation, irradiated splenic APC) [1]: 100 fold
Molecule: OX6 anti-I-A (RT1B) IgG1 mAb (antibody)

antigenic potency against GPMBP added with saturating IL-4 as a separate molecule [3]: 100 fold
antigenic potency against GPMBP, by antigen concentrations eliciting a half maximal response (RsL.11 proliferation, irradiated splenic APC) [3]: > 100 fold
inhibition by soluble IL-4 of the RsL.11 proliferative response to IL4.4 (irradiated splenic APC) [3]: 10 fold
B2: IL4.4 (rat IL4/EK/GP73-87/6his fusion protein) (protein)
chain: CNDSPLREIINTLNQVTEKGTPCTEMFVPDVLTATRNTTENELICRASRVLRKFYFPRDVPPCLKNKSGVLGELRKLCRGVSGLNSLRSCTVNESTLTTLKDFLESLKSILRGKYLQSCTSMSGDDDDKGPQKSQRSQDENPVVHHHHHHH

antigenic potency against GPMBP added with saturating IL-2 as a separate molecule [2]: 100 fold
inhibition by soluble IL-2 of the RsL.11 proliferative response to IL2.7 (irradiated splenic APC) [2]: 10 fold
B4: IL2.7 (rat IL2/EK/GP73-87/6his fusion protein) (protein)
chain: APTSSPAKETQQHLEQLLLDLQVLLRGIDNYKNLKLPMMLTFKFYLPKQATELKHLQCLENELGALQRVLDLTQSKSFHLEDAGNFISNIRVTVVKLKGSENKFECQFDDEPATVVEFLRRWIAICQSIISTMTQGDDDDKGPQKSQRSQDENPVVHHHHHHH
potency against GPMBP in T cell-mediated cytotoxic assay (R1-trans T-APC, irradiated RsL.11), IL-2 added 24 hours after initiation of culture [2]: 1000 times
potency against GPMBP in T cell-mediated cytotoxic assay (R1-trans T-APC, irradiated RsL.11), IL-2 added at the initiation of culture [2]: 32 fold
